Laboratory results published in PMC4189725.

Biological target: CD40-FasL
Assay: SEC; gel filtration (Superdex 200) of CD40-FasL conditioned medium; fractions analysed by Western blot (anti FasL) and CD40 ELISA

stoichiometry N: 6
Substance: CD40-FasL
